Assay results as given in PMC10836093, “Ensemble-based design of tau to inhibit aggregation while preserving biological activity” (Research Square, 2024).

B1: WT R2R3_(294-311) peptide (peptide)
peptide: Ac-KDNIKHVPGGGSVQIVYK-NH2
notes: also called 4R-derived peptide; source: synthetic peptide (Genscript, >95% purity), disaggregated in TFA
B2: P301S R2R3_(294-311) peptide (peptide)
peptide: Ac-KDNIKHVSGGGSVQIVYK-NH2
notes: also called mutant 4R fragment; source: synthetic peptide (Genscript, >95% purity), disaggregated in TFA

Molecular target: the molecule itself
Experiment: ThT fluorescence aggregation assay; peptide alone, 50-800 μM in 1X PBS pH 7.4, 1 mM DTT, 25 μM ThT, 37 °C, no inducer; self-assembly into amyloid fibrils, t1/2max from fitted curves

Protein	t1/2max of ThT aggregation at 800 μM	t1/2max of ThT aggregation at 100 μM
B1	46 ± 13 h	
B2	7.5 ± 1 h	52 ± 14 h
